Laboratory results as given in publication PMC3681697.
pKd: −log10 of the molar value. Values joined by “and” are separate entries in the source; they are usually repeats but may differ in a detail not shown here. Identical values can stand only once. Like-named read-outs stand apart in the source and are kept apart here. Values belong to the substance of their own block, whether it stands above or below them.

Experiments:
headless desmin (human) = headless desmin (human) (UniProt P17661); assay: co-sedimentation
tailless desmin (human) = tailless desmin (human) (UniProt P17661); assay: co-sedimentation
[1] = molecular target: full-length wild-type desmin (human) (UniProt P17661); assay: co-sedimentation
desmin rod (human) = desmin rod (human) (UniProt P17661); assay: co-sedimentation
[2] = molecular target: mutant desmin E245D (human) (UniProt P17661); assay: co-sedimentation
[3] = molecular target: N-terminal His-tagged recombinant nebulin encompassing modules 160–164 (human) (UniProt P20929); assay: ELISA
[4] = molecular target: N-terminal His-tagged recombinant nebulin encompassing modules 160–164 (human) (UniProt P20929); assay: ELISA; remark: listed apart in the source

- pKd [3]: 7.74 and 7.85
Substance: full-length wild-type desmin (from UniProt P17661 1-470) (natural protein)

- pKd [3]: 7.96
Substance: mutant desmin T453I (from UniProt P17661 1-470) (natural protein)

Second part, the substance before the results:

Substance: N-terminal His-tagged recombinant nebulin encompassing modules 160–164 (from UniProt P20929 1-8525) (domain or fragment)
- sedimentation value (percent in the pellet, equimolar mixture) (headless desmin (human)): 57%
- sedimentation value (percent in the pellet, equimolar mixture) (tailless desmin (human)): 29%
- nebulin bound at later time points (percent of total protein) [1]: 35%
- sedimentation value (percent in the pellet, equimolar mixture) (desmin rod (human)): 70%
- nebulin bound at later time points (percent of total protein) [2]: 20%

Substance: mutant desmin E245D (from UniProt P17661 1-470) (natural protein)
- pKd [4]: 8.70
- pKd [3]: 8.10

Substance: mutant desmin S46Y (from UniProt P17661 1-470) (natural protein)
- pKd [3]: 7.72
